Measurements reported in patent US20260049138A1 (Chugai, published 2026).

B1: GLS3000 S56R one-arm antibody (antibody, human IgG1, kappa, L234A L235A, N297A, name in Kabat numbering)
heavy: QVQLVESGGGVVQPGRSLRLSCAASGFTFSNAWMHWVRQAPGKGLEWVAQIKAKSNNYATYYAESVKGRFTISRDDSKNSLYLQMNSLKTEDTAVYYCRYVHYGAYYGVDAWGQGTTVTVSSASTKGPSVFPLAPSSKSTSGGTAALGCLVKDYFPEPVTVSWNSGALTSGVHTFPAVLQSSGLYSLSSVVTVPSSSLGTQTYICNVNHKPSNTKVDKKVEPKSCDKTHTCPPCPAPEAAGGPSVFLFPPKPKDTLMISRTPEVTCVVVDVSHEDPEVKFNWYVDGVEVHNAKTKPREEQYASTYRVVSVLTVLHQDWLNGKEYKCKVSNKALPAPIEKTISKAKGQPREPQVYTLPPSRCELTKNQVSLSCAVKGFYPSDIAVEWESNGQPENNYKTTPPVLDSDGSFFLVSKLTVDKSRWQQGNVFSCSVMHEALHNHYTQKSLSLSPDYKDDDDK
chain: EPKSSDKTHTCPPCPAPELLGGPSVFLFPPKPKDTLMISRTPEVTCVVVDVSHEDPEVKFNWYVDGVEVHNAKTKPREEQYNSTYRVVSVLTVLHQDWLNGKEYKCKVSNKALPAPIEKTISKAKGQPREPQVCTLPPSRDELTKNQVSLWCLVKGFYPSDIAVEWESNGQPENNYKTTPPVLDSDGSFFLYSKLTVDKSRWQQGNVFSCSVMHEALHNRYTQKSLSLSP
light: DIVMTQSPLSLPVTPGEPASISCRSSQSLVHSNRNTYLHWYQQKPGQAPRLLIYKVSNRFRGVPDRFSGSGSGTDFTLKISRVEAEDVGVYYCGQGTQVPYTFGQGTKLEIKRTVAAPSVFIFPPSDEQLKSGTASVVCLLNNFYPREAKVQWKVDNALQSGNSQESVTEQDSKDSTYSLSSTLTLSKADYEKHKVYACEVTHQGLSSPVTKSFNRGEC
B2: GLS3000 S56W one-arm antibody (antibody, human IgG1, kappa, L234A L235A, N297A, name in Kabat numbering)
heavy: QVQLVESGGGVVQPGRSLRLSCAASGFTFSNAWMHWVRQAPGKGLEWVAQIKAKSNNYATYYAESVKGRFTISRDDSKNSLYLQMNSLKTEDTAVYYCRYVHYGAYYGVDAWGQGTTVTVSSASTKGPSVFPLAPSSKSTSGGTAALGCLVKDYFPEPVTVSWNSGALTSGVHTFPAVLQSSGLYSLSSVVTVPSSSLGTQTYICNVNHKPSNTKVDKKVEPKSCDKTHTCPPCPAPEAAGGPSVFLFPPKPKDTLMISRTPEVTCVVVDVSHEDPEVKFNWYVDGVEVHNAKTKPREEQYASTYRVVSVLTVLHQDWLNGKEYKCKVSNKALPAPIEKTISKAKGQPREPQVYTLPPSRCELTKNQVSLSCAVKGFYPSDIAVEWESNGQPENNYKTTPPVLDSDGSFFLVSKLTVDKSRWQQGNVFSCSVMHEALHNHYTQKSLSLSPDYKDDDDK
chain: EPKSSDKTHTCPPCPAPELLGGPSVFLFPPKPKDTLMISRTPEVTCVVVDVSHEDPEVKFNWYVDGVEVHNAKTKPREEQYNSTYRVVSVLTVLHQDWLNGKEYKCKVSNKALPAPIEKTISKAKGQPREPQVCTLPPSRDELTKNQVSLWCLVKGFYPSDIAVEWESNGQPENNYKTTPPVLDSDGSFFLYSKLTVDKSRWQQGNVFSCSVMHEALHNRYTQKSLSLSP
light: DIVMTQSPLSLPVTPGEPASISCRSSQSLVHSNRNTYLHWYQQKPGQAPRLLIYKVSNRFWGVPDRFSGSGSGTDFTLKISRVEAEDVGVYYCGQGTQVPYTFGQGTKLEIKRTVAAPSVFIFPPSDEQLKSGTASVVCLLNNFYPREAKVQWKVDNALQSGNSQESVTEQDSKDSTYSLSSTLTLSKADYEKHKVYACEVTHQGLSSPVTKSFNRGEC
B3: GLS3000 S56T one-arm antibody (antibody, human IgG1, kappa, L234A L235A, N297A, name in Kabat numbering)
heavy: QVQLVESGGGVVQPGRSLRLSCAASGFTFSNAWMHWVRQAPGKGLEWVAQIKAKSNNYATYYAESVKGRFTISRDDSKNSLYLQMNSLKTEDTAVYYCRYVHYGAYYGVDAWGQGTTVTVSSASTKGPSVFPLAPSSKSTSGGTAALGCLVKDYFPEPVTVSWNSGALTSGVHTFPAVLQSSGLYSLSSVVTVPSSSLGTQTYICNVNHKPSNTKVDKKVEPKSCDKTHTCPPCPAPEAAGGPSVFLFPPKPKDTLMISRTPEVTCVVVDVSHEDPEVKFNWYVDGVEVHNAKTKPREEQYASTYRVVSVLTVLHQDWLNGKEYKCKVSNKALPAPIEKTISKAKGQPREPQVYTLPPSRCELTKNQVSLSCAVKGFYPSDIAVEWESNGQPENNYKTTPPVLDSDGSFFLVSKLTVDKSRWQQGNVFSCSVMHEALHNHYTQKSLSLSPDYKDDDDK
chain: EPKSSDKTHTCPPCPAPELLGGPSVFLFPPKPKDTLMISRTPEVTCVVVDVSHEDPEVKFNWYVDGVEVHNAKTKPREEQYNSTYRVVSVLTVLHQDWLNGKEYKCKVSNKALPAPIEKTISKAKGQPREPQVCTLPPSRDELTKNQVSLWCLVKGFYPSDIAVEWESNGQPENNYKTTPPVLDSDGSFFLYSKLTVDKSRWQQGNVFSCSVMHEALHNRYTQKSLSLSP
light: DIVMTQSPLSLPVTPGEPASISCRSSQSLVHSNRNTYLHWYQQKPGQAPRLLIYKVSNRFTGVPDRFSGSGSGTDFTLKISRVEAEDVGVYYCGQGTQVPYTFGQGTKLEIKRTVAAPSVFIFPPSDEQLKSGTASVVCLLNNFYPREAKVQWKVDNALQSGNSQESVTEQDSKDSTYSLSSTLTLSKADYEKHKVYACEVTHQGLSSPVTKSFNRGEC
B4: GLS3000 T31D one-arm antibody (antibody, human IgG1, kappa, L234A L235A, N297A, name in Kabat numbering)
heavy: QVQLVESGGGVVQPGRSLRLSCAASGFTFSNAWMHWVRQAPGKGLEWVAQIKAKSNNYATYYAESVKGRFTISRDDSKNSLYLQMNSLKTEDTAVYYCRYVHYGAYYGVDAWGQGTTVTVSSASTKGPSVFPLAPSSKSTSGGTAALGCLVKDYFPEPVTVSWNSGALTSGVHTFPAVLQSSGLYSLSSVVTVPSSSLGTQTYICNVNHKPSNTKVDKKVEPKSCDKTHTCPPCPAPEAAGGPSVFLFPPKPKDTLMISRTPEVTCVVVDVSHEDPEVKFNWYVDGVEVHNAKTKPREEQYASTYRVVSVLTVLHQDWLNGKEYKCKVSNKALPAPIEKTISKAKGQPREPQVYTLPPSRCELTKNQVSLSCAVKGFYPSDIAVEWESNGQPENNYKTTPPVLDSDGSFFLVSKLTVDKSRWQQGNVFSCSVMHEALHNHYTQKSLSLSPDYKDDDDK
chain: EPKSSDKTHTCPPCPAPELLGGPSVFLFPPKPKDTLMISRTPEVTCVVVDVSHEDPEVKFNWYVDGVEVHNAKTKPREEQYNSTYRVVSVLTVLHQDWLNGKEYKCKVSNKALPAPIEKTISKAKGQPREPQVCTLPPSRDELTKNQVSLWCLVKGFYPSDIAVEWESNGQPENNYKTTPPVLDSDGSFFLYSKLTVDKSRWQQGNVFSCSVMHEALHNRYTQKSLSLSP
light: DIVMTQSPLSLPVTPGEPASISCRSSQSLVHSNRNDYLHWYQQKPGQAPRLLIYKVSNRFSGVPDRFSGSGSGTDFTLKISRVEAEDVGVYYCGQGTQVPYTFGQGTKLEIKRTVAAPSVFIFPPSDEQLKSGTASVVCLLNNFYPREAKVQWKVDNALQSGNSQESVTEQDSKDSTYSLSSTLTLSKADYEKHKVYACEVTHQGLSSPVTKSFNRGEC
B5: GLS3000 S56V one-arm antibody (antibody, human IgG1, kappa, L234A L235A, N297A, name in Kabat numbering)
heavy: QVQLVESGGGVVQPGRSLRLSCAASGFTFSNAWMHWVRQAPGKGLEWVAQIKAKSNNYATYYAESVKGRFTISRDDSKNSLYLQMNSLKTEDTAVYYCRYVHYGAYYGVDAWGQGTTVTVSSASTKGPSVFPLAPSSKSTSGGTAALGCLVKDYFPEPVTVSWNSGALTSGVHTFPAVLQSSGLYSLSSVVTVPSSSLGTQTYICNVNHKPSNTKVDKKVEPKSCDKTHTCPPCPAPEAAGGPSVFLFPPKPKDTLMISRTPEVTCVVVDVSHEDPEVKFNWYVDGVEVHNAKTKPREEQYASTYRVVSVLTVLHQDWLNGKEYKCKVSNKALPAPIEKTISKAKGQPREPQVYTLPPSRCELTKNQVSLSCAVKGFYPSDIAVEWESNGQPENNYKTTPPVLDSDGSFFLVSKLTVDKSRWQQGNVFSCSVMHEALHNHYTQKSLSLSPDYKDDDDK
chain: EPKSSDKTHTCPPCPAPELLGGPSVFLFPPKPKDTLMISRTPEVTCVVVDVSHEDPEVKFNWYVDGVEVHNAKTKPREEQYNSTYRVVSVLTVLHQDWLNGKEYKCKVSNKALPAPIEKTISKAKGQPREPQVCTLPPSRDELTKNQVSLWCLVKGFYPSDIAVEWESNGQPENNYKTTPPVLDSDGSFFLYSKLTVDKSRWQQGNVFSCSVMHEALHNRYTQKSLSLSP
light: DIVMTQSPLSLPVTPGEPASISCRSSQSLVHSNRNTYLHWYQQKPGQAPRLLIYKVSNRFVGVPDRFSGSGSGTDFTLKISRVEAEDVGVYYCGQGTQVPYTFGQGTKLEIKRTVAAPSVFIFPPSDEQLKSGTASVVCLLNNFYPREAKVQWKVDNALQSGNSQESVTEQDSKDSTYSLSSTLTLSKADYEKHKVYACEVTHQGLSSPVTKSFNRGEC
B6: GLS3000 S56Y one-arm antibody (antibody, human IgG1, kappa, L234A L235A, N297A, name in Kabat numbering)
heavy: QVQLVESGGGVVQPGRSLRLSCAASGFTFSNAWMHWVRQAPGKGLEWVAQIKAKSNNYATYYAESVKGRFTISRDDSKNSLYLQMNSLKTEDTAVYYCRYVHYGAYYGVDAWGQGTTVTVSSASTKGPSVFPLAPSSKSTSGGTAALGCLVKDYFPEPVTVSWNSGALTSGVHTFPAVLQSSGLYSLSSVVTVPSSSLGTQTYICNVNHKPSNTKVDKKVEPKSCDKTHTCPPCPAPEAAGGPSVFLFPPKPKDTLMISRTPEVTCVVVDVSHEDPEVKFNWYVDGVEVHNAKTKPREEQYASTYRVVSVLTVLHQDWLNGKEYKCKVSNKALPAPIEKTISKAKGQPREPQVYTLPPSRCELTKNQVSLSCAVKGFYPSDIAVEWESNGQPENNYKTTPPVLDSDGSFFLVSKLTVDKSRWQQGNVFSCSVMHEALHNHYTQKSLSLSPDYKDDDDK
chain: EPKSSDKTHTCPPCPAPELLGGPSVFLFPPKPKDTLMISRTPEVTCVVVDVSHEDPEVKFNWYVDGVEVHNAKTKPREEQYNSTYRVVSVLTVLHQDWLNGKEYKCKVSNKALPAPIEKTISKAKGQPREPQVCTLPPSRDELTKNQVSLWCLVKGFYPSDIAVEWESNGQPENNYKTTPPVLDSDGSFFLYSKLTVDKSRWQQGNVFSCSVMHEALHNRYTQKSLSLSP
light: DIVMTQSPLSLPVTPGEPASISCRSSQSLVHSNRNTYLHWYQQKPGQAPRLLIYKVSNRFYGVPDRFSGSGSGTDFTLKISRVEAEDVGVYYCGQGTQVPYTFGQGTKLEIKRTVAAPSVFIFPPSDEQLKSGTASVVCLLNNFYPREAKVQWKVDNALQSGNSQESVTEQDSKDSTYSLSSTLTLSKADYEKHKVYACEVTHQGLSSPVTKSFNRGEC

Each binder was assayed against T1, CD3ε homodimer protein (human, UniProt P07766 23-126, limits assumed) (assay: SPR Biacore T200, CD3ε homodimer on chip;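 further: Light-chain single-residue variant antibodies injected over amine-coupled CD3ε homodimer on a CM4 chip at 25 °C, bound amount divided by that of the GLS3000-containing antibody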).
T1 construct: also called CD3 (CD3ε)
T1 sequence (P07766 23-126 limits assumed): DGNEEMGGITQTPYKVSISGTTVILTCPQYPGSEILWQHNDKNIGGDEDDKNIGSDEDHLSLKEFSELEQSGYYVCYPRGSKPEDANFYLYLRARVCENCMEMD
B1 was tested, and the “ratio of amount bound vs unaltered GLS3000” value (from here on “ratio of amount bound”) was 1.36. For B2, the “ratio of amount bound” value was 1.38. For B3, the “ratio of amount bound” value was 0.97. B4 was tested, and the “ratio of amount bound” value was 0.23. In the case of B5, the “ratio of amount bound” value is reported as 0.95. With B6 the “ratio of amount bound” value was 1.46.
